{"source": "paper PMC3882236", "about": "“A Neutralization Epitope in the Hepatitis C Virus E2 Glycoprotein Interacts with Host Entry Factor CD81” (PLoS ONE, 2014)", "binders": {"B1": {"name": "CD81-Luc (large extracellular domain of human CD81, residues 113-201, fused with gaussia luciferase) (domain or fragment, UniProt P60033 113-201, looked up)", "chain": "FVNKDQIAKDVKQFYDQALQQAVVDDDANNAKAVVKTFHETLDCCGSSTLTALTTSVLKNNLCPSGSNIISNLFKEDCHQKIDDLFSGK", "notes": "human CD81, large extracellular domain, residues 113-201; source: Huh7, transiently transfected, secreted into the cell culture medium (supernatant)"}}, "test_in_all_cases": "luciferase-based plate binding assay; supernatant (100 uL/well) with E2-16Fc or a mutant form held on protein A-coated 96-well plates, room temperature, 1 h; PBS-T wash; CD81-Luc supernatant (2.5x10^6 units of luciferase activity in 30 uL) added for 1 h, with or without 1H8 (10 or 50 ug/reaction); PBS-T rinse; bound luciferase activity read", "conditions_in_all_cases": "partners not purified", "key": {"[1]": {"biological_target": "T1, E2-16Fc Y527A (Hepatitis C virus genotype 1a, H77 …, UniProt P27958 384-661, Y527A)", "T1 construct": "HCV envelope glycoprotein E2, residues 384-661, HCV genotype 1a H77 strain, single site mutant of E2-16Fc; Same construct as m1 with one substitution; source: Huh7, transiently transfected, secreted into the cell culture medium (supernatant)"}, "[2]": {"biological_target": "T2, E2-16Fc T526A (Hepatitis C virus genotype 1a, H77 …, UniProt P27958 384-661, T526A)", "T2 construct": "HCV envelope glycoprotein E2, residues 384-661, HCV genotype 1a H77 strain, single site mutant of E2-16Fc; Same construct as m1 with one substitution; source: Huh7, transiently transfected, secreted into the cell culture medium (supernatant)"}, "[3]": {"biological_target": "T3, E2-16Fc W529A (Hepatitis C virus genotype 1a, H77 …, UniProt P27958 384-661, W529A)", "T3 construct": "HCV envelope glycoprotein E2, residues 384-661, HCV genotype 1a H77 strain, single site mutant of E2-16Fc; Same construct as m1 with one substitution; source: Huh7, transiently transfected, secreted into the cell culture medium (supernatant)"}}}
{"binder": "B1", "values": [{"measurement": "percent reduction of binding compared to the wild-type E2-16Fc", "setting": "[1]", "value": 98.4, "unit": "%"}, {"measurement": "percent reduction of binding compared to the wild-type E2-16Fc", "setting": "[2]", "value": 83.1, "unit": "%"}, {"measurement": "percent reduction of binding compared to the wild-type E2-16Fc", "setting": "[3]", "value": 99.2, "unit": "%"}]}
